The record followed here is the supplement of paper PMC9170038.

Data set [1] concerns MS2 coat protein. The data set is described as follows: apparent KD of MS2 coat protein, switch OFF state (with FMN for OFF switches, without FMN for ON switches); designed switch direction (-1 OFF switch, 1 ON switch): 1; higher = weaker reporter binding. The following applies: FMN input: 0 or 200 uM; Eterna round: R93 (includes R88 designs). The procedure, abridged:
(§1)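 Normalised binding curves from single clusters were fitted, and the median fit for each design is given as apparent KD. The clusters held designed RNA switches transcribed on-chip from Illumina sequencing clusters. These were titrated with SNAP-549-labelled MS2 coat protein (twofold steps from 0.7 or 1.5 nM to 3 µM, 0.8–1.5 h to 10–20 min per step) in 100 mM Tris-HCl pH 7.5, 80 mM KCl, 4 mM MgCl2, without or with constant ligand.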

The subject of data set [2] is MS2 coat protein. The data set is described as follows: apparent KD of MS2 coat protein, switch ON state; designed switch direction (-1 OFF switch, 1 ON switch): 1; higher = weaker reporter binding. The following applies: FMN input: 0 or 200 uM; Eterna round: R93 (includes R88 designs). The procedure, abridged:
as §1

Consider “UAAAAACAUGAGGAUCACCCAUGUAAGAUAAACACAGGAUAUGCGAAAAGAAACAAAGAAGCAGAAGGGUGAAAAU [Mat - Same State 1 - Tesla mod - 44]”, for which the “apparent KD of MS2 coat protein” value in data set [1] worked out at 64.8 nM; in data set [2] it was 17.3 nM.

As for “CAUCAUGCGCCUAAGGAUAUGUCUCACAAGACAUGAGGAUCACCCAUGUAGAAUAAAUAAAUGAUGCAGAAGGUGGAGUGCAUGA [Inares]”, the entries for the “apparent KD of MS2 coat protein” value in data set [1] and in data set [2] were 785 nM and 50.6 nM, respectively.

“CUAGUUGCAUACUAGGAUAUACACUGGGUGACAUGAGGAUCACCCAUGUAAAAGCACAUUCGGUAGUAGAAGGAGUGUGCAGGUC [Ceedesbi]”: the entries for the “apparent KD of MS2 coat protein” value in data set [1] and in data set [2] were 68.8 nM and 92.6 nM, respectively.

Consider “UAUCAUUACACGAAGGAUAUCGAUAAUUGAACAUGAGGAUCACCCAUGUGCCAUUCUUUACAGUUCGAGAAGGUCGAGGGUGAAG [JR_SS002_Sub708]”, for which the “apparent KD of MS2 coat protein” value in data set [1] was determined as 83.5 nM; in data set [2], 72.7 nM.

Take “AAAUAAAUGACUGAGGAUAUAUCGAUGUGUACAUGAGGAUCACCCAUGUGUGAAUAAAAAGGGUGGUAGAAGGUAGUCAACAAAC [Mod 17 of Pariah 4 by Hyphema in Round 1]”: the “apparent KD of MS2 coat protein” value in data set [1] stood at 66.7 nM; in data set [2], 76.9 nM.

For the sequence “GGGAGACAUGAGGAUCACCCAUGUGAGAAGAGGCGAGGAUAUCGAAAGAAAGAAGAGAAACGAGAAGGCGCGAGUC [salish99-SS1-062]”, the “apparent KD of MS2 coat protein” value was 63.4 nM in data set [1] and 45.2 nM in data set [2].

“UUGCAGUACGGGUAGGAUAUGUAGGGUGGUACAUGAGGAUCACCCAUGUGUCCACCCUUCGACCGGCAGAAGGGCCUGUCACUGC [Lerieseser]”: the “apparent KD of MS2 coat protein” value in data set [1] came out at 17.3 nM; in data set [2], 17.5 nM.

For “AAUAUACAUGAGGAUCACCCAUGUUUUGGUGUAUGAGGAUAUAAAAAAAAUUAAAUAAAAUUAGAAGGCAUAAAUA [JR_SS001_Sub001]”, the figures for the “apparent KD of MS2 coat protein” value in data set [1] and in data set [2] were 48.7 nM and 49.2 nM, respectively.

As for “UUUAGCUGCGGGCAGGAUAUGUAUUAAAAUACAUGAGGAUCACCCAUGUGCAGGUGUAACACCUGACAGAAGGGCCAAUCGCGGC [Bequre]”, the “apparent KD of MS2 coat protein” value in data set [1] worked out at 193 nM; in data set [2], 25 nM.

Regarding “AAAAAACAUGAGGAUCACCCAUGUCUUCGGACGUGAGGAUAUGUACAGACUUCGGUCUGUACAGAAGGCACAAAAA [SS1 - 1033]”, the figures for the “apparent KD of MS2 coat protein” value in data set [1] and in data set [2] were 397 nM and 38.1 nM, respectively.

“AAAUAACAUGAGGAUCACCCAUGUUACGACUUUACAGGAUAUGUGGGUGAAAAUAGCAUGACAGAAGGGUACAGUA [SameState1 Malc#36]”: the entries for the “apparent KD of MS2 coat protein” value in data set [1] and in data set [2] were 112 nM and 205 nM, respectively.

In the case of “GAAAAACAUGAGGAUCACCCAUGUAGAAAUAUGGGAGGAUAUACGAAGACGAAAGUCGAGGUAGAAGGCCUAAAAG [Garnet 54]”, the entries for the “apparent KD of MS2 coat protein” value in data set [1] and in data set [2] were 98 nM and 34.7 nM, respectively.

Consider “AAGAAAGUUUACGAGGAUAUGUUCCGCAGAACAUGAGGAUCACCCAUGUGAACAAGAAAGGCGACGCAGAAGGCGUGAGCAAAGA [Anvedi]”, for which the “apparent KD of MS2 coat protein” value in data set [1] was found to be 105 nM; in data set [2], 35.9 nM.

Take “GAAAAACAUGAGGAUCACCCAUGUGUAAAUAUGGGAGGAUAUACGAAGACGUAAGUCAAAGUAGAAGGCCUAAAAG [Garnet 92]”: the “apparent KD of MS2 coat protein” value came to 119 nM in data set [1] and 24.7 nM in data set [2].

Take “AAAAUACAUGAGGAUCACCCAUGUGAAAAUAUGGGAGGAUAUACCGAAAAAAAAAAAACGGUAGAAGGCCCAAAAA [SS! 1 MT 7]”: the “apparent KD of MS2 coat protein” value in data set [1] stood at 43.5 nM; in data set [2] it was 18.7 nM.

“UGAAGACAUGAGGAUCACCCAUGUGGGAUUAUGGGAGGAUAUACAAAGACGAGAGUCAGAGUAGAAGGCCUAGGAA [salish99-ss1-116(!)]”: the “apparent KD of MS2 coat protein” value is 68 nM in data set [1] and 36.1 nM in data set [2].

With “GUGGCCCAGGCACAGGAUAUGUUUCUCGUAACAUGAGGAUCACCCAUGUGCCUAUGAGAUUUAAUGCAGAAGGGUGCACGCCACG [Atiinbe]”, the “apparent KD of MS2 coat protein” value in data set [1] is 342 nM; in data set [2], 16.4 nM.

“AAAAAACAUGAGGAUCACCCAUGUAGAAAUAUGGAAGGAUAUGGAAACACGAAAGUGAAACCAGAAGGUCCAAAAG [77%, Mat - Mod of Eli, 9]”: the “apparent KD of MS2 coat protein” value in data set [1] stood at 23.9 nM; in data set [2], 18 nM.

“AAUAUAUUAAGUGAGGAUAUCGAGGAAAAAACAUGAGGAUCACCCAUGUGGGAAACAUGGUAGGGUGAGAAGGUACUUAAUAUAU [Samwise Clockwise 23 - Jieux - Same State 2]”: the “apparent KD of MS2 coat protein” value is 220 nM in data set [1] and 218 nM in data set [2].

As to “UAAAAAACGUAUGAGGAUAUCCAAAAUAAAACAUGAGGAUCACCCAUGUGAAUAAAAUAACAAUGGGAGAAGGCAUACGUAUCAU [Mat - Same state - Malcolm Mod - D138]”, the “apparent KD of MS2 coat protein” value in data set [1] came to 20.8 nM; in data set [2], 46.3 nM.

As for “AAACCACAUGAGGAUCACCCAUGUAAAAUAAUGGGAGGAUAUACUAGAAGAAACAAAAUAGUAGAAGGCUCAAAAA [75%, Ex sub1, 34]”, the results for the “apparent KD of MS2 coat protein” value in data set [1] and in data set [2] were 97.3 nM and 28.2 nM, respectively.

On to “GAGGACCUAGGAUAGGAUAUAUGAAUAAUUACAUGAGGAUCACCCAUGUCCAUUUAUAUGGGAACAUAGAAGGGUUCUGGUUAUC [SameState2 Malc#37]”, for which the “apparent KD of MS2 coat protein” value in data set [1] worked out at 60.6 nM; in data set [2], 36.9 nM.

Take “GAAAAACAUGAGGAUCACCCAUGUAGAAAUAUGGGAGGAUAUACUAAGACGAAAGUCGAUGUAGAAGGCCUAAAAG [Same State 1.4g (Mat - Mod of Eli - )]”: the “apparent KD of MS2 coat protein” value was determined as 42.8 nM in data set [1] and 21.6 nM in data set [2].

On to “UUUAAUUAUACGAAGGAUAUCGGUAAUUAGACAUGAGGAUCACCCAUGUUAUAAGGUUCCAUAUUCGAGAAGGUCGCGGGUGAAC [JR_SS002_Sub509]”, for which the “apparent KD of MS2 coat protein” value in data set [1] was 18.2 nM; in data set [2], 16.1 nM.

With “UAUCAUUACACGAAGGAUAUCGAUAAUAGAACAUGAGGAUCACCCAUGUGAAAUAAAAUACAGAACGAGAAGGUCGAGGGUGAAG [JR_SS002_Sub703]”, the “apparent KD of MS2 coat protein” value in data set [1] was found to be 16.8 nM; in data set [2], 19.7 nM.

Consider “GGAGAACAUGAGGAUCACCCAUGUCGGAGAAGGCGAGGAUAUCGAAGGAGGAAGGAAGGACGAGAAGGCGCGGCAG [salish99-SS1-01]”, for which the entries for the “apparent KD of MS2 coat protein” value in data set [1] and in data set [2] were 21.4 nM and 15.9 nM, respectively.

For the sequence “AAAUAAAGGACUGAGGAUAUACCACAUGAAACAUGAGGAUCACCCAUGUUAAAAAACAAAGGGUGGUAGAAGGCAGUCCACAAAC [Same State 2.5f ( so lets mod hyphema)]”, the entries for the “apparent KD of MS2 coat protein” value in data set [1] and in data set [2] were 12.1 nM and 9.26 nM, respectively.

Consider “CGCCAAUUGGCACAGGAUAUGAGCAUGCUCACAUGAGGAUCACCCAUGUGAUUACCAACGCAAAAUCAGAAGGGUGCCCUCGUCA [Beanza]”, for which the entries for the “apparent KD of MS2 coat protein” value in data set [1] and in data set [2] were 92.6 nM and 69 nM, respectively.

As to “AAAAUACAUGAGGAUCACCCAUGUGAGAAAAACGCAGGAUAUGCCCGAAAAAAAAGGCGGGCAGAAGGGUGAAAAA [SameState1-II]”, the figures for the “apparent KD of MS2 coat protein” value in data set [1] and in data set [2] were 90.4 nM and 35.5 nM, respectively.

With “AUAUGAGCUAUUGAGGAUAUCCAUAACAAGACAUGAGGAUCACCCAUGUAAUCAAAACAAUAAUGGGAGAAGGCAAUAGCUCAAU [SS 2 M48]”, the “apparent KD of MS2 coat protein” value came out at 44.1 nM in data set [1] and 36.7 nM in data set [2].

On to “AAUGAACAUGAGGAUCACCCAUGUUUUAAUAGUUGAGGAUAUAUGGGUGAAAAUAGCACAGUAGAAGGCGAGUGUA [SameState1 Malc#16]”, for which the “apparent KD of MS2 coat protein” value in data set [1] was determined as 133 nM; in data set [2] it was 144 nM.

Take “AGGAAACAUGAGGAUCACCCAUGUAUAAAAAUGGAAGGAUAUACUAAGACGAAAGUCAUAGUAGAAGGUCUAAAAA [76%, Meechl, 10]”: the “apparent KD of MS2 coat protein” value in data set [1] amounted to 20.7 nM; in data set [2], 16.6 nM.

With “AAGAAACAUGAGGAUCACCCAUGUGAUAAUAUGGGAGGAUAUACGAAGACGAAAGUCGAAGUAGAAGGCCUAUGAA [Garnet 42]”, the “apparent KD of MS2 coat protein” value stood at 57.2 nM in data set [1] and 40.2 nM in data set [2].

Regarding “GCAAAACAUGAGGAUCACCCAUGUCAACAAAAUCAAGGAUAUGAGCCGGCAUUGCCGGCAUCAGAAGGUGAACCUU [Gemaisinve]”, the entries for the “apparent KD of MS2 coat protein” value in data set [1] and in data set [2] were 129 nM and 96.1 nM, respectively.

Regarding “AACAAUCUAUCUGAGGAUAUCAUAAAAAAAACAUGAGGAUCACCCAUGUGCAGGAAAACUGCAUAUGAGAAGGCAGAUAGAUUGA [SS2: 1102]”, the results for the “apparent KD of MS2 coat protein” value in data set [1] and in data set [2] were 10.6 nM and 8.73 nM, respectively.

For “AGGAAACAUGAGGAUCACCCAUGUAAAAGGUGGUUAGGAUAUGCGAUAAUAAAAAUAAUAGCAGAAGGGACAAGAA [Same State of Confusion3 mod Fisker]”, the “apparent KD of MS2 coat protein” value is 416 nM in data set [1] and 215 nM in data set [2].

As for “AAAAAACAUGAGGAUCACCCAUGUGAAAAUAUGGGAGGAUAUACAAAGACGAAAGUCAAAGUAGAAGGCCUAAAAA [Mat - Same State 1 - Eli mod - D86]”, the “apparent KD of MS2 coat protein” value in data set [1] amounted to 132 nM; in data set [2] it was 18.4 nM.

Take “AGAAAACAUGAGGAUCACCCAUGUAGAAAUAUGGGAGGAUAUACAAAGACGAAAGUCGAAGUAGAAGGCCUAAAGA [Mat - Same State 1 - Meechl mod - D123]”: the “apparent KD of MS2 coat protein” value in data set [1] came to 58.7 nM; in data set [2], 22 nM.
